The FLAb antibody collection (doi:10.7554/elife.23156)

B1: scFv; the commonest letter at each place (parent)
chain 1: EVKLDETGGGLVQPGRPMKLSCVASGFTFSDYWMNWVRQSPEKGLEWVAQIRNKPYNYETYYSDSVKGRFTISRDDSKSSVYLQMNNLRVEDMGIYYCTGSYYGMDYWGQGTSVTVS
chain 2: DVVMTQTPLSLPVSLGDQASISCRSSQSLVHSNGNTYLRWYLQKPGQSPKVLIYKVSNRFSGVPDRFSGSGSGTDFTLKISRVEAEDLGVYFCSQSTHVPWTFGGGTKLEIK

Legend:
fluorescein = variants of: B1; assay: Kd (Tite-Seq); conditions: with fluorescein; format: scFv 4-4-20, heavy + light
[1] = variants of: B1; assay: yeast surface expression (ratio to wild type); higher = more expressed; conditions: format: scFv 4-4-20, heavy + light

Kd (fluorescein) [nM] | Variant | yeast surface expression [1]
≥ 10000 | chain 1 EVKLDETGGGLVQPGRPMKLSCVASGFTRSDYWMNWVRQSPEKGLEWVAQIRNKPYNYETYYSDSVKGRFTISRDDSKSSVYLQMNNLRVEDMGIYYCTGSYYGMDYWGQGTSVTVS chain 2 DVVMTQTPLSLPVSLGDQASISCRSSQSLVHSNGNTYLRWYLQKPGQSPKVLIYKVSNRFSGVPDRFSGSGSGTDFTLKISRVEAEDLGVYFCSQSTHVPWTFGGGTKLEIK [chain 1 F29R] | 0.758
3200 | chain 1 EVKLDETGGGLVQPGRPMKLSCVASGFTFSDYWMNWVRQSPEKGLEWVAQIRNKPYNYETYYSDSVKGRFTISRDDSKSSVYLQMNNLRVEDMGIYYCTGSYYGKEYWGQGTSVTVS chain 2 DVVMTQTPLSLPVSLGDQASISCRSSQSLVHSNGNTYLRWYLQKPGQSPKVLIYKVSNRFSGVPDRFSGSGSGTDFTLKISRVEAEDLGVYFCSQSTHVPWTFGGGTKLEIK [chain 1 M105K D106E] | 1.01
≥ 10000 | chain 1 EVKLDETGGGLVQPGRPMKLSCVASGFTGSYYWMNWVRQSPEKGLEWVAQIRNKPYNYETYYSDSVKGRFTISRDDSKSSVYLQMNNLRVEDMGIYYCTGSYYGMDYWGQGTSVTVS chain 2 DVVMTQTPLSLPVSLGDQASISCRSSQSLVHSNGNTYLRWYLQKPGQSPKVLIYKVSNRFSGVPDRFSGSGSGTDFTLKISRVEAEDLGVYFCSQSTHVPWTFGGGTKLEIK [chain 1 F29G D31Y] | 0.708
155 | chain 1 EVKLDETGGGLVQPGRPMKLSCVASGFTFSDSWMNWVRQSPEKGLEWVAQIRNKPYNYETYYSDSVKGRFTISRDDSKSSVYLQMNNLRVEDMGIYYCTGSYYGMDYWGQGTSVTVS chain 2 DVVMTQTPLSLPVSLGDQASISCRSSQSLVHSNGNTYLRWYLQKPGQSPKVLIYKVSNRFSGVPDRFSGSGSGTDFTLKISRVEAEDLGVYFCSQSTHVPWTFGGGTKLEIK [chain 1 Y32S] | 1.06
0.589 | chain 1 EVKLDETGGGLVQPGRPMKLSCVASGFFFSDYWMNWPRQSPEKGLEWVAQIRNKPYNYETYYSDSVKGRFTISRDDSKSSVYLQMNNLRVEDMGIYYCTGSYYGMDYWGQGTSVTVS chain 2 DVVMTQTPLSLPVSLGDQASISCRSSQSLVHSNGNTYLRWYLQKPGQSPKVLIYKVSNRFSGVPDRFSGSGSGTDFTLKISRVEAEDLGVYFCSQSTHVPWTFGGGTKLEIK [chain 1 T28F V37P] | 0.417
10.7 | chain 1 EVKLDETGGGLVQPGRPMKLSCVASGFTFSDYWYNWMRQSPEKGLEWVAQIRNKPYNYETYYSDSVKGRFTISRDDSKSSVYLQMNNLRVEDMGIYYCTGSYYGMDYWGQGTSVTVS chain 2 DVVMTQTPLSLPVSLGDQASISCRSSQSLVHSNGNTYLRWYLQKPGQSPKVLIYKVSNRFSGVPDRFSGSGSGTDFTLKISRVEAEDLGVYFCSQSTHVPWTFGGGTKLEIK [chain 1 M34Y V37M] | 0.807
≥ 10000 | chain 1 EVKLDETGGGLVQPGRPMKLSCVASGFTFSDYWMNWVRQSPEKGLEWVAQIRNKPYNYETYYSDSVKGRFTISRDDSKSSVYLQMNNLRVEDMGIYYCTGCYYGMDYWNQGTSVTVS chain 2 DVVMTQTPLSLPVSLGDQASISCRSSQSLVHSNGNTYLRWYLQKPGQSPKVLIYKVSNRFSGVPDRFSGSGSGTDFTLKISRVEAEDLGVYFCSQSTHVPWTFGGGTKLEIK [chain 1 S101C G109N] | 0.251
13.2 | chain 1 EVKLDETGGGLVQPGRPMKLSCVASGFTFSDYWMNWVRQSPEKGLEWVAQIRNKPYNYETYYSDSVKGRFTISRDDSKSSVYLQMNNLRVEDMGIYYCTGSKDGMDYWGQGTSVTVS chain 2 DVVMTQTPLSLPVSLGDQASISCRSSQSLVHSNGNTYLRWYLQKPGQSPKVLIYKVSNRFSGVPDRFSGSGSGTDFTLKISRVEAEDLGVYFCSQSTHVPWTFGGGTKLEIK [chain 1 Y102K Y103D] | 1.24
≥ 10000 | chain 1 EVKLDETGGGLVQPGRPMKLSCVASGFIFSDYWMNAVRQSPEKGLEWVAQIRNKPYNYETYYSDSVKGRFTISRDDSKSSVYLQMNNLRVEDMGIYYCTGSYYGMDYWGQGTSVTVS chain 2 DVVMTQTPLSLPVSLGDQASISCRSSQSLVHSNGNTYLRWYLQKPGQSPKVLIYKVSNRFSGVPDRFSGSGSGTDFTLKISRVEAEDLGVYFCSQSTHVPWTFGGGTKLEIK [chain 1 T28I W36A] | 0.354
25.9 | chain 1 EVKLDETGGGLVQPGRPMKLSCVASGFRFSDHWMNWVRQSPEKGLEWVAQIRNKPYNYETYYSDSVKGRFTISRDDSKSSVYLQMNNLRVEDMGIYYCTGSYYGMDYWGQGTSVTVS chain 2 DVVMTQTPLSLPVSLGDQASISCRSSQSLVHSNGNTYLRWYLQKPGQSPKVLIYKVSNRFSGVPDRFSGSGSGTDFTLKISRVEAEDLGVYFCSQSTHVPWTFGGGTKLEIK [chain 1 T28R Y32H] | 1
30.2 | chain 1 EVKLDETGGGLVQPGRPMKLSCVASGFTFSGLWMNWVRQSPEKGLEWVAQIRNKPYNYETYYSDSVKGRFTISRDDSKSSVYLQMNNLRVEDMGIYYCTGSYYGMDYWGQGTSVTVS chain 2 DVVMTQTPLSLPVSLGDQASISCRSSQSLVHSNGNTYLRWYLQKPGQSPKVLIYKVSNRFSGVPDRFSGSGSGTDFTLKISRVEAEDLGVYFCSQSTHVPWTFGGGTKLEIK [chain 1 D31G Y32L] | 0.645
≥ 10000 | chain 1 EVKLDETGGGLVQPGRPMKLSCVASGFTFSDYWMNWVRQSPEKGLEWVAQIRNKPYNYETYYSDSVKGRFTISRDDSKSSVYLQMNNLRVEDMGIYYCTGSYDGNDYWGQGTSVTVS chain 2 DVVMTQTPLSLPVSLGDQASISCRSSQSLVHSNGNTYLRWYLQKPGQSPKVLIYKVSNRFSGVPDRFSGSGSGTDFTLKISRVEAEDLGVYFCSQSTHVPWTFGGGTKLEIK [chain 1 Y103D M105N] | 1.19
